Where no end group is shown, it is not given here. The star is where a group is joined. Biotin = O=C1N[C@H]2[C@H](CS[C@H]2CCCCC(=O)*)N1

Some targets named below: LC3A (human, UniProt Q9H492 1-121); LC3B (human, UniProt Q9GZQ8 1-120); 1 (human, UniProt Q9H0R8 1-117); GABARAPL2 (human, UniProt P60520 1-117).
Holding throughout (experiment): BLI
Experiment [1] has as its target GABARAP (γ-aminobutyric acid type A receptor-associated protein) (human, UniProt O95166 1-117).

Chain of GABARAPL2 (P60520 whole entry): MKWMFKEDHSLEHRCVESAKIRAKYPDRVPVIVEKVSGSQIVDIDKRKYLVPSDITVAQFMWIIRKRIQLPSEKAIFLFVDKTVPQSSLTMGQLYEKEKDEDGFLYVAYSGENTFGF
Chain of 1 (Q9H0R8 whole entry): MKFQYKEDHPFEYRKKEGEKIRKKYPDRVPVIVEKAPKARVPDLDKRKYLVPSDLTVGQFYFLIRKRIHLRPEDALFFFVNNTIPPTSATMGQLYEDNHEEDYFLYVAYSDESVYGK
Chain of GABARAP (γ-aminobutyric acid type A receptor-associated protein) (O95166 whole entry): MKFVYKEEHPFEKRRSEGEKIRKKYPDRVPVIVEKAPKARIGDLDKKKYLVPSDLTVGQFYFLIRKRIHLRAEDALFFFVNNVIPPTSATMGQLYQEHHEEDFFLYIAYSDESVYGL

One may read the Kd as the concentration at which binding is half-saturated. The low end stands for a tighter complex, the high end for a looser complex. Turning to Biotin-ALTEDSIDDTFLPVPEYINQSVPK [EGFR LIR1 peptide (EGFR residues 1076–1099), N-terminally biotinylated], the dissociation constant (Kd) was 231 µM with LC3A, 435 µM with LC3B, 21.6 µM with 1 and 105 µM in the experiment with GABARAPL2.

With Biotin-STAENAEYLRVAPQSSEFIGA [EGFR LIR2 peptide (EGFR residues 1190–1210), N-terminally biotinylated], the dissociation constant Kd in experiment [1] was determined as 304 µM; with LC3A, 648 µM; with LC3B it was 1460 µM; in the experiment with 1 it was 48 µM; with GABARAPL2 it was 146 µM.

Consider Biotin-ISQKSDEEDFVKVED [PCM1 LIR peptide (pericentriolar material 1 protein residues 1954-1968), N-terminally biotinylated], for which the Kd in experiment [1] came to 3.7 µM; with LC3A, 118 µM; in the experiment with LC3B, 369 µM; with GABARAPL2, 15 µM.

Source of the values: paper doi:10.1101/2024.07.10.602929 (2024).
